Substitutions are numbered along the chain they refer to. Read-outs that look alike come from different tables or passages of the source.
T1: cynomolgus C5 (Macaca fascicularis) (cynomolgus (Macaca fascicularis), Beta and alpha chains are joined by disulfide bonds; the protein is a serum glycoprotein.)
T1 beta: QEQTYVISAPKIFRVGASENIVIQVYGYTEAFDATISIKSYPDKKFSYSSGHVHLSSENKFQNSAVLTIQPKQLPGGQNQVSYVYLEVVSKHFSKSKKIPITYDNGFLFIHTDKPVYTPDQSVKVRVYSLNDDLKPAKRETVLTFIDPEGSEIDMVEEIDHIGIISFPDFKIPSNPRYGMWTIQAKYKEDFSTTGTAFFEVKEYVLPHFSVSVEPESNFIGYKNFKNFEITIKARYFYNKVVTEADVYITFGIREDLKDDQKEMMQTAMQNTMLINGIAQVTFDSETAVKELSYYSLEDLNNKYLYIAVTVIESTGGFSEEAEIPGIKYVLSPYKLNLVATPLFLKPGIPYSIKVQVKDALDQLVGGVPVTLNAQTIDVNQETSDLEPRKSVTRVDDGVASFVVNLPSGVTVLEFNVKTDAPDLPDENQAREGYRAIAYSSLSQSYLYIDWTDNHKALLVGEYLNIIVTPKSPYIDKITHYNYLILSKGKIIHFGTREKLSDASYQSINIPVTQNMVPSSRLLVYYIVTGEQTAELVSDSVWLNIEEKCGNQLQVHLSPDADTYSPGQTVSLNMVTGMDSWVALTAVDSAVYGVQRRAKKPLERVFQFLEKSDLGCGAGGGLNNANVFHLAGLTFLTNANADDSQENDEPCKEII
T1 alpha: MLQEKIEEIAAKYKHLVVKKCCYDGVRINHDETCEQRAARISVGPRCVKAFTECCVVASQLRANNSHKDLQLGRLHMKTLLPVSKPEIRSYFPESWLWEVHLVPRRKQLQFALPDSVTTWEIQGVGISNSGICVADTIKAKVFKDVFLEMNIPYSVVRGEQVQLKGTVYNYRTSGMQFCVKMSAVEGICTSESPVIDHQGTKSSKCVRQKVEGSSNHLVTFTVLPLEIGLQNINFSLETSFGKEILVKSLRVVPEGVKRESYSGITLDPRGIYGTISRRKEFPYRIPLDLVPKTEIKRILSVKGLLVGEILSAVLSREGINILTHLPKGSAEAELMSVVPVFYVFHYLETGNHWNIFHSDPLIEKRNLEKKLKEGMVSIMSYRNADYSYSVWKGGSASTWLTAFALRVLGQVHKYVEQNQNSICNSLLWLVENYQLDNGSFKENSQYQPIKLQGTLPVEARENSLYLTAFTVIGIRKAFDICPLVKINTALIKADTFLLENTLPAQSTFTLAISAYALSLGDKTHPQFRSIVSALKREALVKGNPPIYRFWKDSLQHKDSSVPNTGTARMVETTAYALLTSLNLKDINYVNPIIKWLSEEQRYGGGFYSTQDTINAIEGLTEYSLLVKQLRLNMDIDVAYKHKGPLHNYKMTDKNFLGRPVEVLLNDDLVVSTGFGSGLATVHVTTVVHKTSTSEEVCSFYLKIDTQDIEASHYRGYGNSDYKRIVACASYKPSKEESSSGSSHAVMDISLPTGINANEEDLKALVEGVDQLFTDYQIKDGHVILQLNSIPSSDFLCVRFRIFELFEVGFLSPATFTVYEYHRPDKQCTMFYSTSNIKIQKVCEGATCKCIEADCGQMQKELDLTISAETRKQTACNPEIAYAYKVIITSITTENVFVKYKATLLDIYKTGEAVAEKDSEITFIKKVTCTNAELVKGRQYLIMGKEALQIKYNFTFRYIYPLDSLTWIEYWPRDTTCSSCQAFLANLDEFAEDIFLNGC

B1: MOR08111 (antibody, human IgG1, lambda, L234A L235A, V domains shown)
VH: EVTLKESGPALVKPTQTLTLTCTFSGFSLSTSGGGVSWIRQPPGKALEWLANIDDADIKDYSPSLKSRLTISKDTSKNQVVLTMTNMDPVDTATYYCARGPYGFDSWGQGTLVTVSS
VL: ESALTQPASVSGSPGQSITISCTGTSSDIGTYNYVSWYQQHPGKAPKLMIYDDSNRPSGVSNRFSGSKSGNTASLTISGLQAEDEADYYCQSYDSQSIVFGGGTKLTVLG
notes: Germlined final IgG, human IgG1AA format
B2: MOR08114 (antibody, human IgG1, lambda, L234A L235A, V domains shown)
VH: EVQLVQSGAEVKKPGESLKISCKGSGYSFTSYYIGWVRQMPGKGLEWMGIIDPTDSQTAYSPSFQGQVTISADKSISTAYLQWSSLKASDTAMYYCARYMMRGFDHWGQGTLVTVSS
VL: SYELTQPPSVSVAPGQTARISCSGDSLGDYYAYWYQQKPGQAPVLVIYKDNNRPSGIPERFSGSNSGNTATLTISGTQAEDEADYYCQTWDTGESGVFGGGTKLTVLG
notes: Germlined final IgG, human IgG1AA format; also called Antibody 8114
B3: MOR07872 (Fab, V domains shown)
VH: B2 VH with E1Q, T54S, Q57H, A59T
VL: DIELTQPPSVSVAPGQTARISCSGDSLGDYYAYWYQQKPGQAPVLVIYKDNNRPSGIPERFSGSNSGNTATLTISGTQAEDEADYYCQTWDILPHGLVFGGGTKLTVLG
notes: light CS or A
B4: MOR07873 (Fab, V domains shown)
VH: B2 VH with E1Q, T54S, Q57H, A59T
VL: B3 VL with T89A, D91T, I92D, L93S, H95T
notes: light CS or A
B5: MOR07086 hu IgG1 (antibody, V domains shown)
VH: QVQLVQSGAEVKKPGSSVKVSCKASGGTFSSYAISWVRQAPGQGLEWMGGIGPFFGTANYAQKFQGRVTITADESTSTAYMELSSLRSEDTAVYYCARDTPYFDYWGQGTLVTVSS
VL: DIELTQPPSVSVAPGQTARISCSGDSIPNYYVYWYQQKPGQAPVLVIYDDSNRPSGIPERFSGSNSGNTATLTISGTQAEDEADYYCQSFDSSLNAEVFGGGTKLTVL

Assays:
[1] = biological target: T2, human complement C5 protein (human, UniProt P01031 19-673; P01031 678-1676, Beta and alpha chains are joined by disulfide bonds. C5 was biotinylated in some assays.); assay: SET (MSD), IgG, 1st measurement
Experimental: (§1) In order to improve the sensitivity and accuracy of the SET method, it was transferred from classical ELISA to ECL based technology (Haenel et al., Anal Biochem 339:182-184 (2005)).
(§2) 1 mg/ml goat-anti-human (Fab)₂ fragment specific antibodies (Dianova) were labelled with ECL Sulfo-TAG™ NHS-Ester (Meso Scale Discovery, Gaithersburg, Md., USA) according to the manufacturer's instructions. The experiments were carried out in polypropylene microliter plates and PBS pH 7.4 with 0.5% BSA and 0.02% Tween 20 as assay buffer. […] Wells without antigen were used to determine Bmax values; wells containing neither antigen nor IgG were used to determine background. After addition of e.g. 10 pM IgG (final concentration in 60 μl final volume), the mixture was incubated over night at RT. The applied IgG concentration was similar to or below the expected KD.
(§3) Streptavidin MSD plates were coated with 0.2 μg/ml biotinylated human C5 (30 μl/well) and blocked with 5% BSA in PBS. Subsequently the equilibrated samples were transferred to those plates (30 μl per well) and incubated for 20 min. After washing, 30 μl/well of the ECL Sulfo-tag labeled detection antibody (goat anti-human (Fab)₂) in a final dilution of 1:1500 was added to the MSD plate and incubated for 30 min on an Eppendorf shaker (700 rpm).

[2] = biological target: T2, human complement C5 protein
[3] = biological target: T2, human complement C5 protein; remark: listed apart in the source
[4] = biological target: T2, human complement C5 protein; assay: SPR (Biacore), IgG captured via anti-human Fc, C5 injected
Experimental: (§4) A CM4 chip was coated with 50 μg/ml goat anti-human Fc antibody (500-2000 RU) in 10 mM acetate buffer, pH 4.5, using standard EDC-NHS amine coupling chemistry. Each anti-human C5 IgG was captured on the chip in HBS-EP buffer at constant flow rate of 10 μl/min for a contact time leading to a ligand density around 20 RU. […] Each cycle was completed with two regeneration steps with phosphoric acid. All running conditions were carried out at 25° C. in 1× HBS-EP buffer. The resulting signals were adjusted by double referencing, substracting the refraction index values from the reference flow cell and the binding step with no analyte. Data were collected at 10 Hz and analyzed using the Biacore T100 Evaluation Software Version 1.1 (GE). This program uses a global fitting analysis method for the determination of rate and affinity constants for each interaction. […]

[5] = biological target: T2, human complement C5 protein; remark: listed apart in the source
[6] = biological target: T2, human complement C5 protein; assay: SET (MSD), IgG, 2nd measurement
Experimental: as §1, §2, §3

[7] = biological target: cynomolgus C5 (Macaca fascicularis) (cynomolgus (Macaca fascicularis))
[8] = biological target: T2, human complement C5 protein; remark: listed apart in the source
[9] = biological target: T1, cynomolgus C5 (Macaca fascicularis); assay: cell-based or functional assay
[10] = biological target: T2, human complement C5 protein; assay: cell-based or functional assay
[11] = biological target: T1, cynomolgus C5 (Macaca fascicularis); assay: SET (MSD), IgG, 1st measurement
Experimental: as §1, §2, §3

[12] = biological target: T2, human complement C5 protein; assay: cell-based or functional assay; remark: listed apart in the source
[13] = biological target: T1, cynomolgus C5 (Macaca fascicularis); assay: SPR (Biacore), IgG captured via anti-human Fc, C5 injected
Experimental: as §4

[14] = biological target: T1, cynomolgus C5 (Macaca fascicularis); assay: SET (MSD), IgG, 2nd measurement
Experimental: as §1, §2, §3

[15] = biological target: T2, human complement C5 protein; assay: cell-based or functional assay; remark: listed apart in the source
[16] = biological target: T3, human complement C3 (human, UniProt P01024 23-667; P01024 672-1663); assay: solution ELISA: Fab with biotinylated antigen on NeutrAvidin plate, His-tag detection [huC3 panel]
T3 construct: Counter target in the ELISAs, coated directly or biotinylated; also called human C3
Experimental: Fabs were incubated with biotinylated antigen on a Neutravidin plate and detected via the histidin tag.

[17] = biological target: T1, cynomolgus C5 (Macaca fascicularis); assay: affinity chromatography

T3 sequence (P01024 23-667 limits assumed, chain 1 of 2): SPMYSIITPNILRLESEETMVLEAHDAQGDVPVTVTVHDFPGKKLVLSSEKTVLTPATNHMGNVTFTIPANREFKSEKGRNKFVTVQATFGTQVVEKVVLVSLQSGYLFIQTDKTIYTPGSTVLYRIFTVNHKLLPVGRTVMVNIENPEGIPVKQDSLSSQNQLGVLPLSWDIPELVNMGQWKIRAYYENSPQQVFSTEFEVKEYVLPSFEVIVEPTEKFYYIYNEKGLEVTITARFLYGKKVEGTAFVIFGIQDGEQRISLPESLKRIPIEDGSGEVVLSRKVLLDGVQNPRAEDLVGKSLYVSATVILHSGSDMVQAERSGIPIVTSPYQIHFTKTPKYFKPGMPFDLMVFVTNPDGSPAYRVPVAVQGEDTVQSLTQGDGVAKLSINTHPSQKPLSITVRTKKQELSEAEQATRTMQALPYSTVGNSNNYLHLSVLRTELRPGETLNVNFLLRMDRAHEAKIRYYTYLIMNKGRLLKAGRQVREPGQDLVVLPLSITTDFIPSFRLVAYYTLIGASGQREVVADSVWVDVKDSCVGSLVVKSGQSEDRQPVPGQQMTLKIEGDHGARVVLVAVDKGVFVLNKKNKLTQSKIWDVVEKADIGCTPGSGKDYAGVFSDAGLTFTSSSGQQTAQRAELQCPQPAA
T3 sequence (P01024 672-1663 limits assumed, chain 2 of 2): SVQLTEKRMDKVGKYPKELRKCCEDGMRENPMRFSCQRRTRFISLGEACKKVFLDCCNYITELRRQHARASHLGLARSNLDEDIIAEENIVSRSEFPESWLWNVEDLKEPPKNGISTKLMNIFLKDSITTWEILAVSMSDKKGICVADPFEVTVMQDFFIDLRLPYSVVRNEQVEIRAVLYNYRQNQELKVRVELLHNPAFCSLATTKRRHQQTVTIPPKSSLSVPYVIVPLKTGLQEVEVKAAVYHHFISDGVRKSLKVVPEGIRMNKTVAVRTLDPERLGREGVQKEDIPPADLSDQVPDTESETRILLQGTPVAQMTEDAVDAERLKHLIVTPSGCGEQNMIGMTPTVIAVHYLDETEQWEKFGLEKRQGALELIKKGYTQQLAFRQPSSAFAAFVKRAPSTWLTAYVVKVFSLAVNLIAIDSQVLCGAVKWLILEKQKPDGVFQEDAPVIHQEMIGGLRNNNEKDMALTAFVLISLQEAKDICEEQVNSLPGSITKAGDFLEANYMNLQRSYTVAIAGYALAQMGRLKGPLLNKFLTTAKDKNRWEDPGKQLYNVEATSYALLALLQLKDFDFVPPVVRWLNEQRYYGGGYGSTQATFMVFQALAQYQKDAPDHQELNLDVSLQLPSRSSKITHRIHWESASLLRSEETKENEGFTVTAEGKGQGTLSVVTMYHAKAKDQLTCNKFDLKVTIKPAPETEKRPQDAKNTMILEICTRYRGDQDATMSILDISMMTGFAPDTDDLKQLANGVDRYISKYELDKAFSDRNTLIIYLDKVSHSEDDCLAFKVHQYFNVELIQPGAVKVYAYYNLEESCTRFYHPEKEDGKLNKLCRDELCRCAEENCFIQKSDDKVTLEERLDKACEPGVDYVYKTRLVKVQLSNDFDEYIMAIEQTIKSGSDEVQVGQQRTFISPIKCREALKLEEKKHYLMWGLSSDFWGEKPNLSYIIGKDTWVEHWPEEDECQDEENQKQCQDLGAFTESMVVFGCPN

Molecule	Kd [1]	Kd [4]	Kd [6]	IC50 (read off the curve); hemolysis CP, 5% cyno serum [9]	IC50; hemolysis CP, 20% human serum [10]	Kd [11]	koff [4]	kon [4]	Kd [13]	koff [13]	kon [13]	Kd [14]	binding result [16]	other results
5G1.1 (antibody)	24 pM	56 pM	19 pM	–	–	–	–	–	–	–	–	–	–	IC50 (read off the curve); C5a ELISA on AP hemolysis supernatants, 20% human serum [panel d] [2]: 20000 pM; IC50 (read off the curve); hemolysis AP, 20% human serum [panel c] [2]: 50000 pM; IC50; hemolysis AP, 100 pM human C5 [panel a] [3]: 0.14 nM; IC50; hemolysis AP, 100 pM human C5 [panel c] [3]: 0.205 nM; IC50; hemolysis AP, 100 pM human C5 [panel i] [5]: 0.0582 nM; IC50; hemolysis AP, 100 pM cyno C5 in 20% human C5-depleted serum [panel a] [7]: 1.71 nM; IC50 (read off the curve); hemolysis AP, 100 pM human C5 [panel b] [8]: 0.09 nM
B1	5 pM	31 pM	3 pM	~20000 pM	21500 pM	14 pM	3.07e-05 s⁻¹	1e+06 M⁻¹ s⁻¹	144 pM	0.000128 s⁻¹	891000 M⁻¹ s⁻¹	17 pM	–	IC50 (read off the curve); hemolysis AP, 100 pM human C5 [panel a] [12]: ~0.1 nM
B2	1 pM	15 pM	2 pM	~30000 pM	34200 pM	5 pM	3.12e-05 s⁻¹	2.09e+06 M⁻¹ s⁻¹	31 pM	3.13e-05 s⁻¹	1.06e+06 M⁻¹ s⁻¹	4 pM	–	IC50 (read off the curve); hemolysis AP, 100 pM human C5 [panel c] [12]: ~0.02 nM; IC50 (read off the curve); hemolysis AP, 20% human serum [panel c] [15]: ~50000 pM
B3	–	–	–	–	–	–	–	–	–	–	–	–	no binding (tested: 100 nM)	–
B4	–	–	–	–	–	–	–	–	–	–	–	–	no binding (tested: 100 nM)	–
B5	–	–	–	–	–	–	–	–	–	–	–	–	–	binding result [17]: binds
